Reference: article PMC2195822 (The Journal of Experimental Medicine, 2000)
Read-outs that look alike come from different tables or passages of the source. No end group written: not given here.

B1: soluble IL-2Rβ 31–230 (residues 31–230 of the IL-2Rβ chain, most of the extracellular part) (domain or fragment, human, UniProt P14784 31-230, looked up)
chain: TSQFTCFYNSRANISCVWSQDGALQDTSCQVHAWPDRRRWNQTCELLPVSQASWACNLILGAPDSQKLTTVDIVTLRVLCREGVRWRVMAIQDFKPFENLRLMAPISLQVVHVETHRCNISWEISQASHYFERHLEFEARTLSPGHTWEEAPLLTLKQKQEWICLETLTPDTQYEFQVRVKPLQGEFTTWSPWSQPLAFR

Assays:
[1] = Diffusion–sedimentation equilibrium; assay type: physicochemical; details: 150 μM peptide
AUC [2] = target: the molecule itself; test: AUC
AUC [3] = target: the molecule itself; test: AUC; remark: listed apart in the source
AUC [4] = target: the molecule itself; test: AUC; remark: listed apart in the source
AUC [5] = target: the molecule itself; test: AUC; remark: listed apart in the source

Molecule | stoichiometry N (AUC [2]) | stoichiometry N (AUC [3]) | also measured
SSTKKTQLQLQ [p5–15] | – | – | quaternary structure at 150 μM [1]: dimers
APTSSSTKKTQLQLEHLLLDLQMILNGINNC [IL-2 peptide p1–30Cys] | 4 | 8 | –
APTSSSTKKTQLQLEHLLLDLQMILNGINN-NH2 [peptide p1–30 (amino acids 1–30 of human IL-2, covering the entire α helix A)] | – | 8 | –
APTSSSTKKTQLQLEHLLLDLQMILNGINNC(fluorescein)-NH2 [p1–30Cys labeled on the terminal Cys31 with a fluorescein group (p1–30Cys-FLC)] | 4 | 8 | –
TQLQLEHLLLDLQMILNGINN [IL-2 peptide p10–30] | – | – | stoichiometry N (AUC [4]): 4
B1 | – | – | Kd (AUC [5]): 3000 nM; stoichiometry N (AUC [5]): 2
